Experimental data published in the nanobody polyreactivity screen of Harvey et al. (2022).

Test: yeast display, Sf9 membrane polyspecificity reagent, FACS + sequencing; frameworks hold sequencing errors
In short: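 A synthetic nanobody library was expressed on Saccharomyces cerevisiae BJ5465 by galactose induction for 36–48 hours. The library was stained for 1 hour at 4 °C with 10% biotinylated, detergent-solubilized Sf9 membrane reagent and enriched with streptavidin microbeads before FACS. Low and high (top ~1%) gates were set on anti-HA fluorescence for expression and streptavidin fluorescence for reagent binding, and each polyreactivity label reflects the gate of origin.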

| Sequence | polyreactivity (PSR sort gate) |
| --- | --- |
| QVQLVESGGGLVQAGGSLRLSCAASGRTFTLNAMGWYRQAPGKEREFVAAISNSGVRTYYADSVKGRFTISRDNAKNTVYLQMNSLKPEDTAVYYCARTYQVGDSIDDYWGQGTQVTVSS | low polyreactivity |
| QVQLVESGGGLVQAGGSLRLSCAASGLIFRYYAMGWYRQAPGKERELVATIRGGGSTYYADSVKGRFTISRDNAKNTVYLQMNSLKPEDTAVYYCAADPYSYGARGSRGDYWGQGTQVTVSS | low polyreactivity |
| QDQHVESGGGLVQAGGSLRLSCAASGSTIVDYVMGWYRQAPGKERELVAAIRRSDGRTYYADSVKGRFTISRDNAKNTVYLQMNSLKPEDTAVYYCADYAFYRYFFPDVLYDYWGQGTQVTVSS | low polyreactivity |
| QVQLVESGGGLVQAGGSLRLSCADSGITFSVYAMGWYRQAPGKERELVASISSGGTSTYYADSVKGRFTISRDNAKNTVYLQMNSQKPEDTAVYYCAAYSYYTGDQYSYDYWGQGTQVTVSS | low polyreactivity |
| QVQLGESGGGLVQAGGSLRLSCAASGRTITRNAMGWYRQAPGKERELVAAISYSGGSTYYADSVKGRFTISRDNAKNTVYLQMNSLKPEDTAVYYFNAATSRRSIRYDYWGQGTQVTVSS | high polyreactivity |
| QVQLVESGGGIVQAGGSLRLSCAASGRTIYFNAMGWYRQAPGKERELVATISRSTGSTYYADSVKGRFTISRDNAKNTVYLQMNSLKPEYTAVYYCNATPWGYARMDYWGQGTQVTVSS | low polyreactivity |
| QVQLVESGGGLVQAGGSLSLSCAASGLTFVYYVMGWYRQAPGKERELVAAISSGGGTYYADSVKGRFTISRDNAKNTVYLQMNSLKPEDTAVYYCAADLLGWFDFDYWGQGTQVTVSS | high polyreactivity |
| QVQLVESGGGLVQAGGSLRLSCAASGITFVTYAMGWSRQAPGKERELVADISWRGTSTNYADSVKGRFTISRDNAKNTVYFQMISLKPEDTAVYYCAAKQTYTRLHYLGPSVWDNYDYWGQGTQVTVSS | high polyreactivity |
| QVQRVESGGGLVQAGGSLRLSCAASGSTFTRYGMGWYRQAPGKERELVAAISDRGVSTYYADSVKGRFTISRDNAKNTVYLQMNRMKPEDTAVYYCAAVFWVDILPGDYWGQGTQVTVSS | low polyreactivity |
| QVQLVESGGGLVQAGGSLRLSCAASGSTFYTYAMGWYRQAPGKERELVATISRGGGRTYYADSVKGRFTISRDNAKNTVYLQMNSLKPEDTAVYYCAARLYSSSYNSEQYYYWGQGTQVTVSS | high polyreactivity |
| QVQLVESGGGLVQAGGSLRLSCAASGFTIGYNVMGWYRQAPGKERELVATISWNGARTYYADSVKGRFTISRDNAKNTVYLQMNSLKPEDTAVYYCAARRYYRGEYDYWGQGTQVTVSS | low polyreactivity |
| QVQLVESGGGLEQAGGSLRLSCAASGITLRVNAMGWYRQAPGKERELVAAITRGTNTYYADSVKGRFTISRDNAKNTVYLQMNSLKPEDTAVYYCAARLPYNAIGYYYWGQGTQVTVSS | low polyreactivity |
| QVQLVESGGGLVQAGGSLRLSCAASGIIFSYYDMGWYRQAPGKERELVATITGNGGSTYYADSVKGRFTISRDNAKNTVYLQMNSLKPEDTAVYYCAAQTTVYIYDYWGQGTQVTVSS | low polyreactivity |
| QVQLVESGGGLVQAGGSLRLSCAASGSSFGGYARGWYRQAPGKERELVAAISNGDRTNYADSVKGRFTISRDNAKNTVYLQLNSQKPEYTAVYDCATQPLTWSSYRWDWRAQFDHWGQGTQVTVSS | low polyreactivity |
| QVHLVESGGGLVQAGGSLRLSCAAYGIIFNSNAMGWYRQAPGKERELVAAISVSGGSTYYADSVKGRFTISRDNAKNTVYLQMNSLKPEDTAVYFCAARTGRGDRTRRYYYWGQGTKVTVSS | high polyreactivity |
| QVQLVESGGGLVQAGGSLRLSCAATGRTFYWNAMGWYRQAPGKERELVAAIDSSGGSTYYADSVKGRFTISRDNAKNTVYLQMNSLKPEDTAVYYCNKDYPTYDYDYWGQGTQVTVSS | low polyreactivity |

| Sequence | polyreactivity (PSR sort gate) |
| --- | --- |
| QVQLVESGGGLVQAGGSLRLSCAASGRTFKYNVMGWYRPAPGKERELVAAISSGGGTNYADSVKGRFTISRDNAKKTVYFQINSLKPEDTAVYYCAAKYAWRLLEMYYWGQGTQVTVSS | low polyreactivity |
| QVQRVESGGGLVQAGGSLRISCAASGLTINNYARGWYRQAPGKERELVAAISFSGGDTYYADSVKGRFTISRDNAKNTVYLQMNSLKPEDTGVYYFAAESYSVLQMGYWGQGTQVTVSS | high polyreactivity |
| QVQLVESGGGLVQAGGSLRLSCAATGIKFDGYAMGWYRQEPRKERELVAGITIGDITYYADSVKGRFTISRDNAKNTVYLQMNSLKPEDTAVYYCADDCYYYQTAYDYWGQGTQVTVSS | low polyreactivity |
| QVQLVESGGGLVQAGGSLRLSCAASGITFRSYDMGWYRQAPGTERELVAAISSTGRTYYADSVKGRFTISRDNAKNTVYLQMNSLKPEDTAVYYCARARSHYAYYWWNAGTGLDYWGQGTQVTVSS | high polyreactivity |
| QVQLVESGGGLVQAGGSLRLSCAASGLIFSKNVMGWYRQAPGKERELVAAISQRGGSTYYADSVKGRFTISRDNAKNTVYLQMNSLKPEDTAVYYCAARSRRRDDYWGQGTQVTVSS | high polyreactivity |
| QVQLVESGGGLVQAGGSLRLSCAASGRIFRYYAMGWYRQAPGKERELVAAISSRGGSTYYADSVKGRFTISRDNAKNSVYLQMNSLKPEDTAVYFCDKAVFYGPSERNYGLDYWGQGTQVTVSS | high polyreactivity |
| QVQLVESGGGLVQAGGSLRLSCAASGSTFDRYDMGWYRQAPGKERELVAAITRRGGSTYYADSVKGRFTISRDNAKNTVYLQMNSLKPEDTAVYYCNAKHFAYSVAHPYLRYGYDYWGQGTQVTVSS | low polyreactivity |
| QVQLVESGGGLVQAGGSLRLSCAASGSIFESNAMGWYRPAPGKEREFVAAIDQNDGSTNYADSVKGRFTISRDHAKNTVYLQMNSLKPEDTAVYYCAKYWGYLGYYEFDYWGQGTQVTVSS | low polyreactivity |
| QVQLQESGGGLVQAGGSLRLGCAASGNISDAGYMGWYRQAPGKEREFVAAIAAGSNTNYADSVKGRFTISRDNAKNTVYLQMNSLKPEDTAVFYCAVGSYARVQYEYWGQGTQVTVNS | low polyreactivity |
| QVQLVESGGGLVQAGGSHRLSCAASGITFRRYAMGWYRQAPGKERELVARITDRGSTYYADSVKGRFTSSRDNAKNTVYLQMNSLKPEDTAVYYCAARGYRGLVQLRYGYWGQGTQVTVSS | high polyreactivity |
| QVQHVESGGGLVQAGGSLRLICAASGLTSYYAMGSYRQAPGKEREIVAAIDGSDGNTYYADSVKGRYTISRDNAKNTVYLQMNSLKPEYTAVYYCNAETVLYWWSWENDYWGQGTQVTVSL | high polyreactivity |
| QVQLVESGGGLVQAGGSLRLSCAASGSIFVYYAMGWYRPAPGKERELVASISRGGTSTYYADSVKGRFTISRDNAKNTVYFQMNSLKPEDTAVYYCAAQPYRTGTYDYWGQGTQVTVSS | low polyreactivity |
| QVQLVESGGGLVQAGGSLRLSCAASGLTFYYYAMGWYRQAPGKEREFVAAITRSGTNTYYADSVKGRFTISRDTAKNTVYLQMNSLKPEDTAVYYCAKTGYSFRVFRKYDWGQGTQVTVSS | high polyreactivity |
| QVQLVESGGGLVQAGGSLRLSCAASGSIFKVYAMGWYRQAPGKEREFVAAITSSDSNTNYADSVKGRFTISRDNAKNTVYLQMNSLKPEDTAVYYCNARIYTRRYVPHYGFNYWGQGTQVTVSS | low polyreactivity |
| QVQLVESGGGLVQAGGRLRLSCAASGLIFSVYVMGGYRQAPGKERELVAGITTGGSTKYADSVKGRFTISRDNAKNTVYLEMNSLKPEDTAVYYCAVGKYNYRGSWDYYWGQGTQVTVSS | high polyreactivity |
